Where two headings read alike, the source gives them in different places.
T1: Nab3-RRM(419) (Saccharomyces cerevisiae, UniProt P38996 329-419)
T1 sequence: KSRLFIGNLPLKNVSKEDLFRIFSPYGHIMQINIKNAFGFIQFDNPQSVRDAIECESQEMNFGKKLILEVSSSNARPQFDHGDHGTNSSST

B1: FAM-wtsnR47 (ssRNA)
RNA: UUCUUAUUCUUA
B2: FAM-snR47one (ssRNA)
RNA: UUCUUAUUUUUA

How the values were obtained:
Nab3-RRM(419) [1] = molecular target: T1, Nab3-RRM(419); assay: fluorescence anisotropy
Nab3-RRM(419) [2] = molecular target: T1, Nab3-RRM(419); assay: fluorescence anisotropy; remark: listed apart in the source

| Binder | binding result (Nab3-RRM(419) [1]) | binding result (Nab3-RRM(419) [2]) |
| --- | --- | --- |
| B1 | binds |  |
| B2 |  | binds |

— article PMC3017603
